System: K4 kissing-loop RNA reporter
Assay: apparent KD of K4 kissing-loop reporter; higher = weaker reporter binding
Conditions: Eterna round: R107
Procedure: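 RNA-MaP round R107: designed RNA switches with theophylline, tryptophan, arginine or FMN aptamers are transcribed on-chip within common flanks. They are titrated with a labelled K4 kissing-loop RNA reporter in RNA-MaP buffer (100 mM Tris pH 7.5, 80 mM KCl, 4 mM MgCl2), without ligand or with the indicated ligand. Median apparent KD per design.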

[1] = input ligand: theophylline 20 uM
[2] = input ligand: tryptophan 2.4 mM
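Note: bound reporter read as fluorescence of individual clusters on recovered sequencing chips by microscopy, with normalized cluster intensities fitted with a binding model.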

Row | Sequence | apparent KD of K4 kissing-loop reporter (input ligand: FMN 200 uM) [nM] | apparent KD of K4 kissing-loop reporter (input ligand: arginine 13.2 mM) [nM] | apparent KD of K4 kissing-loop reporter (input ligand: none) [nM] | apparent KD of K4 kissing-loop reporter [1] [nM] | apparent KD of K4 kissing-loop reporter [2] [nM]
1 | AGUUCUUGCCGAAGGAGCGAGGCAGAGUGAUGUUCUGCAGAUGUCGAAAGACAUCAACUGCCUCAGGUAGGUCGCGGCAUGAACA [#05 K4 Arginine B Exclusion] | 114 | 74 | 99.6 | 87.3 | 108
2 | AUAAACUUGCAGUGAUGUUGCAAGUGAGACUAGGAUAUCAGGAAGCUGAGAAGGAGUCAUCUCCUUCAAACAUCACUAUGAAGGA [whbob_SS_FMNA__2th178] | 403 | 287 | 336 | 232 | 292
3 | AUAAUAUGAGUGAUGUUCAUGUAAGCUGAAGGAGCGGACGAAAGUCCAGGUAGGUCGCAGCGUUCCUUUACCUCAUGAGAAGGAG [KL_SSArg-A1 #analogue] | 125 | 184 | 203 | 235 | 127
4 | AUACGUUUAAGUGAUACCAGACUGGUGAGUGAUGUUUACCAAUAAAUUAAAUUAUUAGCUGUCCCUUGGCAGCACAGUUUAUUUA [JR_ExcTheophyB_Sub005] | 258 | 330 | 317 | 323 | 229
5 | AUAGGAGUGAUGUUCCUUAGUUUCUCCGAUACCAGUAUGGAAACAUACCCUUGGCAGCGGGAGACCGCUGAUUAGGAAACUAGUC [Theophylline A K4 8] | 255 | 242 | 261 | 251 | 220
6 | AUCCGAGAAUAUGAUACCAGCUGAGUGUAUCAAGACCGUAUCUCCCGUGCUAGUGAUGUUAGCCCUUGGCAGCAUAUGAAAGCGG [theeternabot_exclusion_KL_Theo_B_15] | 635 | 518 | 467 | 517 | 570
7 | AUCGUUGUCUGAGGAUAUCGGUUAACUGUAGUGAUGUUACAGAAAAUUCAUAUAAUAUUUUCUAUUCGAGAAGGCAGACUACGUA [JR_ExcFMNB_Sub018] | 205 | 157 | 167 | 178 | 177
8 | AUCUGUCAAGGACAACAUUACUGAGGUGAUACCAGCAUCGAAAGAUGCCCUUGGCAGCACCAACUUGCAGUGAUGUUGCAAGUAA [BrourdMod 10 - Jieux - Exclusion - Theophylline A] | 346 | 236 | 332 | 393 | 299
9 | AUGGUAUUGCGAGGAUAUCCUUCAAAUGUGACACUAACGGCAGUGAUGUUGCCGGCGUCUUUUUGAGGAGAAGGCGCGGUGUUAU [Exclusion FMN B GF 24] | 114 | 112 | 129 | 114 | 114
10 | AUGUCUGAUAGCAGUGAUGUUGCUUCGGAUACCAGACGCGAUCUUGUCCCUUGGCAGCUGACACGGCACGUGCUAGGUUAGAAGG [whbob_Ex_Theo_A_th75] | 169 | 125 | 155 | 124 | 134
11 | AUUAAUUUCAGAGGAUAUCGUAUUUAUAUUUUAUCUUUCCAUAUUUGCAGUGAUGUUGCAUUAAUUCGAGAAGGCUGAUUUAUAA [JR_ExcFMNB_Sub008] | 79 | 84 | 61.5 | 75.1 | 55.5
12 | AUUAUAAAGUCGGCCGCCACUGAGAGUAGUGAUGUUACUCUUUUCCUUUAGAUAUUAUAUUUUAUCAGGACCGGGACAUCUGAUU [JR_Nu_ExcTryptoB_Sub024] | 147 | 126 | 148 | 134 | 130
13 | AUUGAUAUAUAUAUUUGAUUUUUAUGUGAUACCAGACAAGGCAUAGUCCCUUGGCAGCACUUUAUAUUUACGAGUGAUGUUCGUA [JR_SSTheophyA_Sub025] | 192 | 180 | 180 | 187 | 154
14 | AUUUAGACGAGUGAUGUUCGUGUUAUUACAGAGGAUAUGCGUAAUUGCAGAAGGCUGUAUUUAUAUAUGUUAUGUGGUUUUAAAA [whbob_Ex_FMNA__2th185] | 75.1 | 98 | 77.6 | 93.8 | 63
15 | AUUUGUUUAUGUGAUACCAGACUUUGCAGUGAUGUUGCAUUUAUUUUAGAAUUUUAUUUAGUCCCUUGGCAGCACUAUGUAUUUA [JR_SSTheophyB_Sub007] | 47 | 90.4 | 53.1 | 92.5 | 45.9
16 | AUUUUUUUAUCAGGAUAUUAGUGAUGGUUUGUUUUGUUAGUGAUGUUGAUAUUUGUUUUAUGUAUUUAAGAAGGGAUUGAGAUGU [seesullin] | 67 | 25.3 | 44.1 | 29.2 | 48.9

Row | Sequence | apparent KD of K4 kissing-loop reporter (input ligand: FMN 200 uM) [nM] | apparent KD of K4 kissing-loop reporter (input ligand: arginine 13.2 mM) [nM] | apparent KD of K4 kissing-loop reporter (input ligand: none) [nM] | apparent KD of K4 kissing-loop reporter [1] [nM] | apparent KD of K4 kissing-loop reporter [2] [nM]
17 | CAACCCUGCUUUUUCGAGUUUUAGGGAUGACGAGGACCGGUACGGCCGCCACUCGACUACACUGUUCAGUGAUGUUGAACGGCGG [Teveza] | 165 | 60 | 116 | 148 | 267
18 | CAACCGUAACACGAUACCAGCCUAGAAGCCAGUGAUGUUGGCCUUUUUUCGGAAAUGAAAGGCCCUUGGCAGCGUGGAUAAAAUG [Lelabiised] | 451 | 464 | 505 | 379 | 501
19 | CAAUGAGUAUAAGAUGAUAUCAUAACAGAAGGAGCGAGUGAUAACUCAGGUAGGUCGCUGAAUUUAUCGAGUGAUGUUCGAUAAA [whbob_SS_Arginine_A_sa116] | 205 | 154 | 187 | 166 | 184
20 | CAAUGAGUAUAAGAUGAUAUCAUAACAGAAGGAGCGAGUGAUAACUCAGGUAGGUCGCUGAAUUUAUCGAGUGAUGUUCGAUAGA [whbob_SS_Arginine_A_sa117] | 202 | 162 | 226 | 193 | 176
21 | CAGCAGAGUGAUGUUCUGCUUACUGCGGAUACCAGCUUUGCCAGAGGCCCUUGGCAGCCGCACGGCUCAGUGAUGUUGGGUCACG [Same State Theophylline A GF 13] | 296 | 293 | 361 | 323 | 301
22 | CAGGCCGAGUGAUGUUCGGUCUGAGUGAUAAAGGAUAUAAGGGAUUUUAGAAGGUUAUCUAAACAGACCAAACAUCUAUCCACUC [theeternabot_exclusion_KL_FMN_A_16] | 221 | 128 | 138 | 145 | 122
23 | CAUACGCAUGGAGGAUAUGAGAUUACUCAUAUCAUUUAAUAUUCUCAGUGAUGUUGAGAUUUAGGCUCAGAAGGCCAUGUGUAUG [Ex FMN B 14] | 271 | 362 | 412 | 421 | 375
24 | CAUACGCAUGGAGGAUAUGAGAUUACUCAUAUCAUUUAAUAUUCUCAGUGAUGUUGAGAUUUGGGCUCAGAAGGCCAUGUGUAUG [Ex FMN B 15] | 479 | 304 | 339 | 343 | 317
25 | CAUACGCAUGGAGGAUAUGAGAUUUCUCAUAUUAUUUAAUAUUCUCAGUGAUGUUGAGAUUUAAACUCAGAAGGCCAUGUGUAUG [Ex FMN B 6] | 388 | 235 | 239 | 279 | 242
26 | CAUGGACUUCCAGUGUAUCCAUGACUGGAUACCAGUCAGGAAACUGACCCUUGGCAGCCAGAACUGGAAGUGAUGUUUCCAGUAA [Design8] | 227 | 214 | 244 | 244 | 240
27 | CAUGGGCCAGUGAUGUUGGCGCGCACGGGACGAGGACCGGUACGGCCGCCACUCGCUUUUGCUCUUAUCGGGAUAAGAAAACCGA [Enveerorle] | 453 | 134 | 567 | 309 | 635
28 | CCAACAACGAGUGAUGUUCGUUGAUCUGAAGGAGCGUCAAUAAUGACAGGUAGGUCGCAGAUAAUUGGAUAUAGGGCAAUAGCUC [Same State Arginine A GF13] | 109 | 116 | 125 | 115 | 102
29 | CCAGGACGAUGAGGAGGAUGAAUUACUGAAGGAGCGCAUAUGGUUGCAGGUAGGUCGCGGUGAACAAGUAUAGUGAUGUUAUACC [SSArgA.T] | 339 | 290 | 368 | 343 | 445
30 | CCAUCGCUAUUCGAUACCAGCUACUUAGUGAUGUUAAGUUUAAAUCCACUGUAGGUGGAAAGCCCUUGGCAGCGAAUAGUGAUGG [Theophylline B K4 24] | 315 | 274 | 306 | 157 | 245
31 | CCAUCGCUAUUCGAUACCAGCUACUUAGUGAUGUUAAGUUUAUAUCCACUGUAGGUGGAAAGCCCUUGGCAGCGAAUAGUGAUGG [Theophylline B K4 25] | 436 | 412 | 491 | 223 | 425
32 | CCCUUAGACUCGGCCGCCACUCGUACCGAGAGCAUGCCACCCAUUAGUGAUGUUAAUUUGUCCUUGAGGACCGGGAGCCUAGGAA [theeternabot_exclusion_KL_Trp_B_44] | 941 | 789 | 980 | 986 | 822
